Experimental findings from paper PMC8298602, “14-3-3-protein regulates Nedd4-2 by modulating interactions between HECT and WW domains” (Communications Biology, 2021) are described below.

Changes are numbered by the printed parent chain.

B1: phosphorylated Nedd4-2^335–455 (domain or fragment, human, UniProt Q96PU5 335-455, looked up)
chain: SSRLRSCSVTDAVAEQGHLPPPSAPAGRARSSTVTGGEEPTPSVAYVHTTPGLPSGWEERKDAKGRTYYVNHNNRTTTWTRPIMQLAEDGASGSATNSNNHLIEPQIRRPRSLSSPTVTLS
modifications: phosphoserine at 342, phosphothreonine at 367, phosphoserine at 448
notes: source: E. coli BL21 (DE3), purified (Chelating Sepharose, TEV cleavage, Superdex 75), phosphorylated by PKA in vitro; not shown: His6, N-terminal, cleaved; GB1 domain of protein G, N-terminal, cleaved
B2: Nedd^335-455pS342 (domain or fragment, human, UniProt Q96PU5 335-455, looked up)
chain: B1 chain with T33A, S114A
modifications: phosphoserine at 342
notes: as for B1
B3: Nedd^335-455pT367 (domain or fragment, human, UniProt Q96PU5 335-455, looked up)
chain: B1 chain with S8A, S114A
modifications: phosphothreonine at 367
notes: as for B1
B4: Nedd^335-455pS448 (domain or fragment, human, UniProt Q96PU5 335-455, looked up)
chain: B1 chain with S8A, T33A
modifications: phosphoserine at 448
notes: also called pSer^448; source: E. coli BL21 (DE3), purified (Chelating Sepharose, TEV cleavage, Superdex 75), phosphorylated by PKA in vitro; not shown: His6, N-terminal, cleaved; GB1 domain of protein G, N-terminal, cleaved
B5: Nedd^335-455pS342 + pT367 (domain or fragment, human, UniProt Q96PU5 335-455, looked up)
chain: B1 chain with S114A
modifications: phosphoserine at 342, phosphothreonine at 367
notes: as for B1
B6: Nedd^335-455pS342 + pS448 (domain or fragment, human, UniProt Q96PU5 335-455, looked up)
chain: B1 chain with T33A
modifications: phosphoserine at 342, phosphoserine at 448
notes: The same variant was used in native PAGE, SV-AUC and for the crystal with 14-3-3ηΔC; source: E. coli BL21 (DE3), purified (Chelating Sepharose, TEV cleavage, Superdex 75), phosphorylated by PKA in vitro; not shown: His6, N-terminal, cleaved; GB1 domain of protein G, N-terminal, cleaved
B7: Nedd^335-455pT367 + pS448 (domain or fragment, human, UniProt Q96PU5 335-455, looked up)
chain: B1 chain with S8A
modifications: phosphothreonine at 367, phosphoserine at 448
notes: as for B1
B8: 14-3-3η (natural protein, human)
chain: MGDREQLLQRARLAEQAERYDDMASAMKAVTELNEPLSNEDRNLLSVAYKNVVGARRSSWRVISSIEQKTMADGNEKKLEKVKAYREKIEKELETVCNDVLSLLDKFLIKNCNDFQYESKVFYLKMKGDYYRYLAEVASGEKKNSVVEASEAAYKEAFEISKEQMQPTHPIRLGLALNFSVFYYEIQNAPEQACLLAKQAFDDAIAELDTLNEDSYKDSTLIMQLLRDNLTLWTSDQQDEEAGEGN
notes: 14-3-3 protein eta, human; also called 14-3-3 protein (eta isoform); 14-3-3η dimer

One series deals with T1, 14-3-3β (human, UniProt P31946 1-246).
T1 construct: 14-3-3 protein beta, human
T1 sequence (looked up): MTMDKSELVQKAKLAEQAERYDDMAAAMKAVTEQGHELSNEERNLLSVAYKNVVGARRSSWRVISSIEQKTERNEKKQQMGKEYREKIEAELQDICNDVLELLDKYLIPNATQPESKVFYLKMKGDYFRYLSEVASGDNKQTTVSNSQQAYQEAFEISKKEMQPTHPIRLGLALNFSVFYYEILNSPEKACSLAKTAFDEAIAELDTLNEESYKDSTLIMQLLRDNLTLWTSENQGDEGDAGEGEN
Nature of the series: native gel or EMSA; 12% native TBE-PAGE; 240 pmol of 14-3-3 and 120 pmol of the Nedd4-2 construct loaded. The note with it: both partners purified. (A gel shift assay detects complexes by their altered migration in electrophoresis.)

Another series addresses T2, 14-3-3γ (human, UniProt P61981 2-247).
T2 construct: 14-3-3 protein gamma, human
T2 sequence: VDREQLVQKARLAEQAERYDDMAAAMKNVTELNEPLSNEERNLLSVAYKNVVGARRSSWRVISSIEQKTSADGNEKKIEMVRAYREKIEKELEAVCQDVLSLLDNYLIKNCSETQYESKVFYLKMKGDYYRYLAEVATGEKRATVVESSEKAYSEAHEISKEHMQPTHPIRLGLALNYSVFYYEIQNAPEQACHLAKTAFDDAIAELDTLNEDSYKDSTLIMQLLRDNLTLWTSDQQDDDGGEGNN
The series is described as above. To be noted: both partners purified.

The next series concerns the target T3, 14-3-3ε (human, UniProt P62258 1-255).
T3 construct: 14-3-3 protein epsilon, human
T3 sequence (looked up): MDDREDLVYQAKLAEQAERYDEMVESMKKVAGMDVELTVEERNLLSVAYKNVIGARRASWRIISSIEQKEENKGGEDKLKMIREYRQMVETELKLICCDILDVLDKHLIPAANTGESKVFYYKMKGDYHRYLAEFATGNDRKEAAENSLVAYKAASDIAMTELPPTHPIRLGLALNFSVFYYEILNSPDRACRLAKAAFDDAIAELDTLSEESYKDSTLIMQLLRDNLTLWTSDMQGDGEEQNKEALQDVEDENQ
The description is as above. The note with it: both partners purified.

Another series deals with T4, 14-3-3ζ (human, UniProt P63104 1-245).
T4 construct: 14-3-3 protein zeta, human
T4 sequence (looked up): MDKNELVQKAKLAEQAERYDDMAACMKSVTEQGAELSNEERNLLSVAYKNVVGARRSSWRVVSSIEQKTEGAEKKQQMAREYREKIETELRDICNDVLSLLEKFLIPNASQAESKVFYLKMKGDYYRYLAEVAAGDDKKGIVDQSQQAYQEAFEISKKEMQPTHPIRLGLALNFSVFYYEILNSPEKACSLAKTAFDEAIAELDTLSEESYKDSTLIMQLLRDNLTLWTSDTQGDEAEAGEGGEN
The series is described as above. The note with it: both partners purified.

The next series addresses T5, 14-3-3σ (human, UniProt P31947 1-248).
T5 construct: 14-3-3 protein sigma, human
T5 sequence (looked up): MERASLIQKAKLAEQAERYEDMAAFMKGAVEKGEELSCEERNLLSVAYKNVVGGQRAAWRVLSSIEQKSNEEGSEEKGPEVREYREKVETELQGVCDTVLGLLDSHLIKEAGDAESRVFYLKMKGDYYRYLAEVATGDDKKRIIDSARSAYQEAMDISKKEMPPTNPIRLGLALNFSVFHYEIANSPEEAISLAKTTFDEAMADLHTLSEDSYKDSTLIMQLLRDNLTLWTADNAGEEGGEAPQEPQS
Described as above. To be noted: both partners purified.

In another series the target is T6, 14-3-3τ (human, UniProt P27348 1-245).
T6 construct: 14-3-3 protein tau (theta), human
T6 sequence (looked up): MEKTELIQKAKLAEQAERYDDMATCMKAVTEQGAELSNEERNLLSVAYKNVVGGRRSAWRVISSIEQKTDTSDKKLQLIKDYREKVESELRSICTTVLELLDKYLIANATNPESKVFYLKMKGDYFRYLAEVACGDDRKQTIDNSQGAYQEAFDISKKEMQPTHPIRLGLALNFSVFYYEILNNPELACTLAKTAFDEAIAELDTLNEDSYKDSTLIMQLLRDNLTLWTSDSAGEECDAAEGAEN
The series is described as above. To be noted: both partners purified.

Series [1] has as its target B8. The series is described as follows: AUC; sedimentation velocity, 20 °C, 20 mM Tris-HCl pH 7.5, 150 mM NaCl, 1 mM TCEP; 1 μM 14-3-3η with Nedd4-2^335–455 variants (0.05 – 5 μM); apparent KD, sw isotherm fitted with A + B ⇌ AB, 14-3-3η dimer + one Nedd4-2 molecule. To be noted: both partners purified.
In series [2] the target is B8. Nature of the series: native gel or EMSA; 12% native TBE-PAGE; 240 pmol of 14-3-3 and 120 pmol of the Nedd4-2 construct loaded. The note with it: both partners purified.
Series [3] deals with the molecule itself. Nature of the series: SEC-SAXS; Superdex 200 Increase 5/150 GL, 20 mM Tris-HCl pH 7.5, 150 mM NaCl, 1 mM TCEP, 3% glycerol, 293.15 K; loaded 2.2 mg/ml Nedd4-2^186–975, 2 mg/ml 14-3-3η, 8.9 mg/ml complex (1:2, 60 μM). (In general: SEC sorts molecules by how far they enter the pores of the column.)

A word on the stoichiometry N: it is a count of units in the complex or per binding partner. As to B1, the binding result with 14-3-3β, in the series with 14-3-3γ, with 14-3-3ε, with 14-3-3ζ, in the series with 14-3-3σ and with 14-3-3τ was “binds” each time. In addition, in the series with 14-3-3η [1], the Kd was < 30 nM. Moreover, in the series with 14-3-3η [1], the “stoichiometry N” value was 2 14-3-3η protomers per Nedd4-2 protomer.

With B2, in the series with 14-3-3η [1], the Kd came to 400 ± 100 nM.

For B3, in the series with 14-3-3η [1], the Kd worked out at 530 ± 30 nM.

As to B4, in the series with 14-3-3η [2], the binding result is recorded as “binds”.

For the molecule B5, the binding result with 14-3-3η [2] was “binds”.

As to B6, the Kd with 14-3-3η [1] was < 30 nM.

Turning to B7, the binding result with 14-3-3η [2] is reported as “binds”.

In the case of B8, the “stoichiometry N” value in series [3] was found to be 2.
